Sequences and labels used below:
B1: KL001 (PL110) (antibody, V domains shown)
VH: QVQLVESGAEVKKPGSSVKVSCKASGGTFSSYAISWVRQAPGQGLEWMGRIIPILGIANYAQKFQGRVTVTADKSTSTAYMELSSLRSEDTAVYYCARSGYSYAYGSFDYWGQGTLVTVSS
VL: QLVLTQPPSVSGAPGQTVTISCTGPTIGAGYDVHWYQQLPGAAPKLLIYGNLNRPSGVPDRFSGSKSGTSASLAITDLQAEDEADYYCQSYDSRLGVVFGGGTKLTVLR
notes: IgG (VH-CH1-hinge-CH2-CH3 and VL-Ck); also called KL001 clone
B2: KL001-08 (antibody, V domains shown)
VH: B1 VH with S31G, I54A, S102G
VL: QLVLTQPPSVSGAPGQTVTISCTGPTIGAGYDVHWYQQLPGAAPKLLIYGNLNRPSGVPDRFSGSKSGTSASLAITDLQAEDEADYYCQSYDSTHGVVFGGGTKLTVL
notes: In the Biacore assay it was captured by anti-human IgG (Fc), so it carried a human Fc there; also called KL001-8
B3: KL001-13 (antibody, human IgG1, kappa, V domains shown)
VH: B1 VH with S102G
VL: B1 VL with P25Q
notes: also called KL001-13 candidate antibody
B4: KL001-16 (antibody, V domains shown)
VH: B1 VH with S102G
VL: B2 VL with T94R, H95L
B5: KL001-22 (antibody, V domains shown)
VH: B1 VH with I52S, S102G
VL: B2 VL with H95L
B6: KL001-10 (antibody, V domains shown)
VH: B1 VH with S102G
VL: B2 VL with S93Q, H95L
B7: KL001-19 (antibody, V domains shown)
VH: B1 VH with S102G
VL: B2 VL with H95V
B8: KL001-15 (antibody, V domains shown)
VH: B1 VH with S102G
VL: B2 VL with G28Q, T94R, H95L
B9: KL001-26 (antibody, V domains shown)
VH: B1 VH with S102G
VL: B2 VL with A29Q, T94R, H95L
B10: KL001-06 (antibody, V domains shown)
VH: B1 VH with S102G, Y110V
VL: B2 VL with T94R, H95L
B11: KL001-11 (antibody, V domains shown)
VH: B1 VH with S102G
VL: B2 VL with S93R, H95L
B12: KL001-09 (antibody, V domains shown)
VH: B1 VH with G56Q, S102G
VL: B2 VL with T26P, H95P
B13: KL001-12 (antibody, V domains shown)
VH: B1 VH with S102G
VL: B2 VL with T94A, H95L
B14: KL001-24 (antibody, V domains shown)
VH: B1 VH with I57Q, S102G
VL: B2 VL with Y31F, T94R, H95L
B15: KL001-20 (antibody, V domains shown)
VH: B1 VH with L55M, S102G
VL: B2 VL with H95L
B16: KL001-18 (antibody, V domains shown)
VH: B1 VH with S102G
VL: B2 VL with P25Q, H95E
B17: KL001-17 (antibody, V domains shown)
VH: B1 VH with S102G
VL: B2 VL with T26V, T94R, H95L
B18: KL001-27 (antibody, V domains shown)
VH: B1 VH with S102G
VL: B2 VL with P25Q, H95D
B19: KL001-14 (antibody, V domains shown)
VH: B1 VH with S102G, G106Q
VL: B2 VL with T26Q, T94R, H95L
B20: KL001-21 (antibody, V domains shown)
VH: B1 VH with I54V, S102G
VL: B2 VL with S90A, H95L
B21: KL001-02 (antibody, V domains shown)
VH: B1 VH with Y101H, S102G
VL: B2 VL with A29Q, T94R, H95L
B22: KL001-23 (antibody, V domains shown)
VH: B1 VH with S102G, S107V, Y110H
VL: B2 VL with T94R, H95L
B23: KL001-04 (antibody, V domains shown)
VH: B1 VH with S102G, D109A, Y110A
VL: B2 VL with H95L
B24: KL001-07 (antibody, V domains shown)
VH: B1 VH with I51Q, S102G
VL: B2 VL with T94R, H95L

Changes are numbered by the printed parent chain.

T4 sequence (Q9NZQ7 19-239): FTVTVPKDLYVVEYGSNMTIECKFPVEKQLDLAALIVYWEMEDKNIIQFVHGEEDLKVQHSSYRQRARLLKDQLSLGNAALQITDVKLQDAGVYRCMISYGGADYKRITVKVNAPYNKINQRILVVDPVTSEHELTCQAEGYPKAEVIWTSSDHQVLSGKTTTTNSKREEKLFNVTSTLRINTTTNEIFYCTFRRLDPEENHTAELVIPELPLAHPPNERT

One assay deals with human PD-L1 expressed on the cell surface (human, UniProt Q9NZQ7 19-290). In words: cell-based or functional assay.
Chain of human PD-L1 expressed on the cell surface (Q9NZQ7 19-290): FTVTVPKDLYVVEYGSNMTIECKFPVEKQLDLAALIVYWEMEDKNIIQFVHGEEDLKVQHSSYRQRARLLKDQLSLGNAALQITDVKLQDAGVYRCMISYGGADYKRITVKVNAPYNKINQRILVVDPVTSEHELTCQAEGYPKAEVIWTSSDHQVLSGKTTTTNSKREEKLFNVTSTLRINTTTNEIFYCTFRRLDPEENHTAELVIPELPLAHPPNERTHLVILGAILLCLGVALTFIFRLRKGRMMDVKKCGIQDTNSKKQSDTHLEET
With B1, the “PD-1/PD-L1 binding inhibitory performance relative to 100% of the MK3475 antibody (Promega PD-1/PD-L1 Blockade Bioassay)” value was 89%.

For the next assay, the target named is T1, mouse PD-L1 on IFN-gamma-treated MC38 murine colon cancer cells (mouse, UniProt Q9EP73 19-290).
T1 construct: whole, on cells; also called mouse PD-L1 protein
T1 sequence (Q9EP73 19-290): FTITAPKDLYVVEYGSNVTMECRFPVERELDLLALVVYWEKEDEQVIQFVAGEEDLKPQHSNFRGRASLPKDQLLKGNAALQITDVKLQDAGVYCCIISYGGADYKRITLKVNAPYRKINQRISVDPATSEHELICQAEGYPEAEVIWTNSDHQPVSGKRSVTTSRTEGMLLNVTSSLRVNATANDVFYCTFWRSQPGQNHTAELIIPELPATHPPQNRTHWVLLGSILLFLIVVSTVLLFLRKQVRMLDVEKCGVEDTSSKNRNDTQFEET
In words: the sentence names no assay.
Turning to B1, the binding result is on record as “binds”.

The target in a further assay is T2, human PD-L1 antigen protein (Sino Biological) (human, UniProt Q9NZQ7 19-238).
T2 construct: Bought from Sino Biological
T2 sequence (Q9NZQ7 19-238 limits assumed): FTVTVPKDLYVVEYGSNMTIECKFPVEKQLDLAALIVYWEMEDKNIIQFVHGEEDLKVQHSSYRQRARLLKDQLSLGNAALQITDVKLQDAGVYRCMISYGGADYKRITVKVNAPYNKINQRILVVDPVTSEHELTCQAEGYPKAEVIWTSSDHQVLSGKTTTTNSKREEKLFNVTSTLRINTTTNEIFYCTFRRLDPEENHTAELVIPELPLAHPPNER
In words: SPR (Biacore T200), antibody captured by anti-human IgG (Fc), PD-L1 as analyte, 1:1 model. The protocol:
(§1) 3) In order to remove the bound antibody every cycle, a regeneration solution (3 M MgCl₂) was injected at a flow rate of 30 μl/min for 30 seconds, and the experimental data were obtained using a 1:1 binding model of BIA evaluation software version 1.0.
(In general: In SPR one partner is held on a chip, and binding of the other changes the refractive index at the surface.)
The molecule B2 displayed a Kd of 0.0671 nM.
Same read-out and setting: with B3 the figure was roughly 0.0632 nM.

In another assay the target is T3, mouse PD-L1 antigen protein (mouse, UniProt Q9EP73 19-238, limits assumed). Described as above. The protocol: as §1
T3 sequence (Q9EP73 19-238 limits assumed): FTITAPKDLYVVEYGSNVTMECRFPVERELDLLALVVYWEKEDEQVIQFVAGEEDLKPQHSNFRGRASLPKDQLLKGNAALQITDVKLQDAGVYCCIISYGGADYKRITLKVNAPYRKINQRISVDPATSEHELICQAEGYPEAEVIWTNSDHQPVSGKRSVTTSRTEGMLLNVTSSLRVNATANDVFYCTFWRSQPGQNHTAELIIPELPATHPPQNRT
The molecule B2 gave an equilibrium dissociation constant (Kd) of 6.4 nM.
The molecule B3 showed a Kd of roughly 2.8 nM.

The next assay addresses T4, PD-L1-Fc (PD-L1 antigen protein, extracellular region Met1-Thr239 fused to human Fc) (human, UniProt Q9NZQ7 19-239).
T4 construct: range 1-239; the secreted protein lacks it; also called PD-L1-Fc antigen; pCEP4-PDL1-Fc product; not shown: human Fc fragment of the pCEP4-Fc vector
In words: BLI (Octet); PD-1-coated biosensor dipped in a mix of PD-L1 antigen protein and antibody; KD from the Octet software. On the technique in general: In BLI a coated tip is dipped into the sample, and binding shifts an interference pattern.
Turning to B1, the equilibrium dissociation constant (Kd) stood at 0.0584 nM.
In the case of B4, the Kd amounted to 0.00908 nM.
Still for that read-out and setting: with B5 the figure was 0.049 nM; with B6, 0.0201 nM; with B7, 0.00655 nM.
The same measure, in the same setting: the value for B8 was 0.0058 nM.
The molecule B9 registered an equilibrium dissociation constant (Kd) of 0.0572 nM.
With B10, the dissociation constant (Kd) is 0.0169 nM.
Molecule B2 had a dissociation constant Kd of 0.0142 nM.
The molecule B11 had a Kd of 0.0163 nM.
For B12, the dissociation constant (Kd) amounted to 0.0216 nM.
B13: the affinity, expressed as Kd, was 0.015 nM.
Still for that read-out and setting: the value for B14 was 0.0408 nM.
B15 had a Kd of 0.0213 nM.
In the case of B16, the dissociation constant (Kd) came to 0.0161 nM.
B3: the Kd was 0.00488 nM.
As to B17, the affinity, expressed as Kd, was 0.0183 nM.
In turn, B18 gave a Kd of 0.0612 nM.
Molecule B19 came in with a Kd of 0.0204 nM.
Regarding B20, the dissociation constant (Kd) was 0.0283 nM.
B21 displayed a Kd of 0.0216 nM.
In the case of B22, the Kd worked out at 0.0267 nM.
As to B23, binding was characterised by a dissociation constant (Kd) of 0.0136 nM.
B24: binding was put at a Kd of 0.0137 nM.

The next assay addresses T2, human PD-L1 antigen protein (Sino …). In words: SPR (Biacore T200), antibody captured by anti-human IgG (Fc) on a CM5 chip, hPD-L1 as analyte, 1:1 binding model. The protocol:
as §1
In turn, B2 showed a koff of 0.000277 s⁻¹ and an on-rate constant (kon) of 4.13e+06 M⁻¹ s⁻¹.
Take B3: the off-rate (koff) came to 0.000319 s⁻¹ and the kon was found to be 5.05e+06 M⁻¹ s⁻¹.

For another assay, the target named is T3, mouse PD-L1 antigen protein. In words: SPR (Biacore T200), antibody captured by anti-human IgG (Fc) on a CM5 chip, mPD-L1 as analyte, 1:1 binding model. The protocol:
as §1
In turn, B2 yielded an off-rate (koff) of 0.0106 s⁻¹ and a kon of 1.65e+06 M⁻¹ s⁻¹.
On to B3, for which the koff was 0.00878 s⁻¹ and the kon was determined as 3.14e+06 M⁻¹ s⁻¹.

One may read the Kd as a measure of binding affinity in units of concentration. A low value points to higher affinity. Usually koff stands for a measure of how fast the partners let go of each other. In general, kon refers to the second-order rate constant of association. A lower kon goes with slower complex formation.

These data come from patent US20220195049A1 (Scripps Research, published 2022).
